These results are taken from article PMC5627276.

Test [1] addresses bRSV F DS2-v33 (391-2 sc9-10 DS-Cav1 Q98C Q361C) (bovine respiratory syncytial virus, strain 391-2 | bacteriophage T4). Nature of the test: negative stain EM; about 0.01 mg/ml, 10 mM HEPES pH 7.0, 150 mM KCl, 0.75% uranyl formate; reference-free 2D class averaging.
For test [2] the target is unchanged. Nature of the test: SEC; after nickel and Strep-Tactin affinity columns and cleavage of the C-terminal affinity tags; SEC in PBS. A general note: SEC sorts molecules by how far they enter the pores of the column.
For test [3], the target named is bRSV F DS2-v35 (ATue51908 sc9-10 DS-Cav1 A149C Y458C) (bovine respiratory syncytial virus, strain ATue51908 | bacteriophage T4). Nature of the test: negative stain EM; about 0.01 mg/ml, 10 mM HEPES pH 7.0, 150 mM KCl, 0.75% uranyl formate; reference-free 2D class averaging.
Test [4] has the same target. Nature of the test: SEC; after nickel and Strep-Tactin affinity columns and cleavage of the C-terminal affinity tags; SEC in PBS.
For test [5], the target named is bRSV F DS2-v1 (391-2 sc9 DS-Cav1 Q98C Q361C) (bovine respiratory syncytial virus, strain 391-2 | bacteriophage T4). Nature of the test: negative stain EM; about 0.01 mg/ml, 10 mM HEPES pH 7.0, 150 mM KCl, 0.75% uranyl formate; reference-free 2D class averaging.
The target is the same in test [6]. As to the kind of experiment: SEC; after nickel and Strep-Tactin affinity columns and cleavage of the C-terminal affinity tags; SEC in PBS.
The target of test [7] is bRSV F RB94 DS-Cav1 (bovine respiratory syncytial virus, strain RB94 | bacteriophage T4). Nature of the test: negative stain EM; about 0.01 mg/ml, 10 mM HEPES pH 7.0, 150 mM KCl, 0.75% uranyl formate; reference-free 2D class averaging.
The target is the same in test [8]. As to the kind of experiment: SEC; after nickel and Strep-Tactin affinity columns and cleavage of the C-terminal affinity tags; SEC in PBS.
For test [9], the target named is bRSV F ATue51908 DS-Cav1 (bovine respiratory syncytial virus, strain ATue51908 | bacteriophage T4). As to the kind of experiment: negative stain EM; about 0.01 mg/ml, 10 mM HEPES pH 7.0, 150 mM KCl, 0.75% uranyl formate; reference-free 2D class averaging.
For test [10] the target is unchanged. As to the kind of experiment: SEC; after nickel and Strep-Tactin affinity columns and cleavage of the C-terminal affinity tags; SEC in PBS.
The target of test [11] is bRSV F 391-2 DS-Cav1 (bovine respiratory syncytial virus, strain 391-2 | bacteriophage T4). As to the kind of experiment: negative stain EM; about 0.01 mg/ml, 10 mM HEPES pH 7.0, 150 mM KCl, 0.75% uranyl formate; reference-free 2D class averaging.
Test [12] shares this target. As to the kind of experiment: SEC; after nickel and Strep-Tactin affinity columns and cleavage of the C-terminal affinity tags; SEC in PBS.

Usually stoichiometry N stands for the number of molecules, sites or subunits per partner or assembly.

For the substance “bRSV F DS2-v33 (391-2 sc9-10 DS-Cav1 Q98C Q361C) (domain or fragment)”, the stoichiometry N in [1] and in test [2] was 3 throughout.
Take “bRSV F DS2-v35 (ATue51908 sc9-10 DS-Cav1 A149C Y458C) (domain or fragment)”: the stoichiometry N in [3] and in test [4] was 3 throughout.
With “bRSV F DS2-v1 (391-2 sc9 DS-Cav1 Q98C Q361C) (domain or fragment)”, the stoichiometry N in test [5] and in test [6] was 3 each time.
“bRSV F RB94 DS-Cav1 (domain or fragment)”: the stoichiometry N in [7] and in [8] was 3 in each case.
“bRSV F ATue51908 DS-Cav1 (domain or fragment)”: the stoichiometry N in test [9] and in test [10] was 3 throughout.
Consider “bRSV F 391-2 DS-Cav1 (domain or fragment)”, for which the stoichiometry N in test [11] and in test [12] was 3 in each case.
